The results in this text go back to patent publication US6537804B1, “BCR-ABL directed compositions and uses for inhibiting Philadelphia chromesome stimulated cell growth” (Board of Regents, The University of Texas Systems, priority 1995, dated 2003).

Common to all, as to format: biochemical
One data set has as its system histone H1. Kind of data set: Immune complex kinase assay of mutant P160 BCR, transphosphorylation of histone H1. The source says:
(§1) Mutant forms of P160^BCR were expressed in COS-1 cells and tested for serine/threonine kinase activities in immune complex kinase assays.
(§2) Using the intensities of the P160^BCR bands as an indication of the amount of active P160^BCR in the immune complex and the intensities of the casein bands as a measure of transphosphorylation activity, the transphosphorylation activity of the Y360F Bcr mutant was reduced about sevenfold, compared with that of the wild type. Similarly, the Y360F Bcr mutant was also defective in transphosphorylating another exogenous substrate, histone H1.

In the next data set the target is T1, P160^BCR (Homo sapiens, UniProt P11274, Y360F).
T1 construct: The original human full length BCR cDNAs were obtained from Dr. John Groffen; expressed in transfected cells; host or cells: COS-1
T1 sequence (P11274 1-1271 Y360F): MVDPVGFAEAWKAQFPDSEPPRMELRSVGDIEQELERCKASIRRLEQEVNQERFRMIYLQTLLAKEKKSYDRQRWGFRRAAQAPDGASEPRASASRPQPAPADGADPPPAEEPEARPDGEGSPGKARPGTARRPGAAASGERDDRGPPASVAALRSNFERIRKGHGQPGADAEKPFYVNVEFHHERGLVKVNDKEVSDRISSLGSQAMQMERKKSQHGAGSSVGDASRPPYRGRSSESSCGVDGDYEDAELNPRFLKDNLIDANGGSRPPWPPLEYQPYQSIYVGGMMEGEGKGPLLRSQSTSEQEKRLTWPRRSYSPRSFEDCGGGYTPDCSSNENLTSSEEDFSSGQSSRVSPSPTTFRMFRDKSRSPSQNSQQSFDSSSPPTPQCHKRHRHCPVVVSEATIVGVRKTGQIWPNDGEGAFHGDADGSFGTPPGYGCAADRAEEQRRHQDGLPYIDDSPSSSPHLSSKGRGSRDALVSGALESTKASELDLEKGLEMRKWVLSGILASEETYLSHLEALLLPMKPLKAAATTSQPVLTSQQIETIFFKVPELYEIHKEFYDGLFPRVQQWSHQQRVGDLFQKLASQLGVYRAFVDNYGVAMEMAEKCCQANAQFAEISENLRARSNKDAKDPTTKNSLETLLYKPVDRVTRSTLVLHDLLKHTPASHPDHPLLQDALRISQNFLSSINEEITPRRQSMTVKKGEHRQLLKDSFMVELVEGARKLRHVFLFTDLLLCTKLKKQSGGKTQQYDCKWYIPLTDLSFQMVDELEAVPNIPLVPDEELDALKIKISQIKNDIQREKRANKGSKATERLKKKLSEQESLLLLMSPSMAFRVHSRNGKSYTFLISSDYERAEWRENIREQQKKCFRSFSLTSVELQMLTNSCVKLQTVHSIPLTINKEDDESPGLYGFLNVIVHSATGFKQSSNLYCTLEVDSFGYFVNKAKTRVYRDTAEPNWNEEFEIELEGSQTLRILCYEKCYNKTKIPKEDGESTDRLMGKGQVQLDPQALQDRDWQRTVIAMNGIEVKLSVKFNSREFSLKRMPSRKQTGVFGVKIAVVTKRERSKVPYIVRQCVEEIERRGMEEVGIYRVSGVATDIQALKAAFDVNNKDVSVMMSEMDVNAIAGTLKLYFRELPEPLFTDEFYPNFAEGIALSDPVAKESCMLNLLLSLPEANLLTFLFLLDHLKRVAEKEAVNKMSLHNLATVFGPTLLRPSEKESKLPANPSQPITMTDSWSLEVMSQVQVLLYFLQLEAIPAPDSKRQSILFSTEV
The data set can be described thus: Immune complex kinase assay of mutant P160 BCR, autophosphorylation.
Source text: as §1

For the next data set, the system named is casein. Kind of data set: Immune complex kinase assay of mutant P160 BCR, transphosphorylation of casein.
Source text: as §1, §2
The amounts of Bcr within these immune complexes were quantitated in two ways. In a first method, the amounts of Bcr mutants would be underestimated by about 10%, compared with that of the wild type. On the basis of these measurements, the specific activity of transkinase activity (casein intensity/P160^BCR intensity) of the Y360F Bcr mutant (0.03) was reduced more than 20-fold in this study, compared with that of the wild type.
The second method of estimating the amounts of P160^BCR in immune complexes involved the Western blotting of these immune complexes with an anti-Bcr antibody. The specific activity of Y360F was reduced by about sixfold. […] By using autophosphorylation of the Bcr protein as a measure of its relative amount, the reduction of Bcr's transkinase by the Y360F mutation was about sevenfold, confirming the results obtained by the Western blot method.

[1] abbreviates: first method of quantitating Bcr in immune complexes.

B1: Y360F Bcr mutant: P160 BCR with tyrosine 360 to phenylalanine mutation, expressed in COS-1 cells (protein, UniProt P11274 1-1271, looked up, variant Y360F)
Breakpoint cluster region …: MVDPVGFAEAWKAQFPDSEPPRMELRSVGDIEQELERCKASIRRLEQEVNQERFRMIYLQTLLAKEKKSYDRQRWGFRRAAQAPDGASEPRASASRPQPAPADGADPPPAEEPEARPDGEGSPGKARPGTARRPGAAASGERDDRGPPASVAALRSNFERIRKGHGQPGADAEKPFYVNVEFHHERGLVKVNDKEVSDRISSLGSQAMQMERKKSQHGAGSSVGDASRPPYRGRSSESSCGVDGDYEDAELNPRFLKDNLIDANGGSRPPWPPLEYQPYQSIYVGGMMEGEGKGPLLRSQSTSEQEKRLTWPRRSYSPRSFEDCGGGYTPDCSSNENLTSSEEDFSSGQSSRVSPSPTTFRMFRDKSRSPSQNSQQSFDSSSPPTPQCHKRHRHCPVVVSEATIVGVRKTGQIWPNDGEGAFHGDADGSFGTPPGYGCAADRAEEQRRHQDGLPYIDDSPSSSPHLSSKGRGSRDALVSGALESTKASELDLEKGLEMRKWVLSGILASEETYLSHLEALLLPMKPLKAAATTSQPVLTSQQIETIFFKVPELYEIHKEFYDGLFPRVQQWSHQQRVGDLFQKLASQLGVYRAFVDNYGVAMEMAEKCCQANAQFAEISENLRARSNKDAKDPTTKNSLETLLYKPVDRVTRSTLVLHDLLKHTPASHPDHPLLQDALRISQNFLSSINEEITPRRQSMTVKKGEHRQLLKDSFMVELVEGARKLRHVFLFTDLLLCTKLKKQSGGKTQQYDCKWYIPLTDLSFQMVDELEAVPNIPLVPDEELDALKIKISQIKNDIQREKRANKGSKATERLKKKLSEQESLLLLMSPSMAFRVHSRNGKSYTFLISSDYERAEWRENIREQQKKCFRSFSLTSVELQMLTNSCVKLQTVHSIPLTINKEDDESPGLYGFLNVIVHSATGFKQSSNLYCTLEVDSFGYFVNKAKTRVYRDTAEPNWNEEFEIELEGSQTLRILCYEKCYNKTKIPKEDGESTDRLMGKGQVQLDPQALQDRDWQRTVIAMNGIEVKLSVKFNSREFSLKRMPSRKQTGVFGVKIAVVTKRERSKVPYIVRQCVEEIERRGMEEVGIYRVSGVATDIQALKAAFDVNNKDVSVMMSEMDVNAIAGTLKLYFRELPEPLFTDEFYPNFAEGIALSDPVAKESCMLNLLLSLPEANLLTFLFLLDHLKRVAEKEAVNKMSLHNLATVFGPTLLRPSEKESKLPANPSQPITMTDSWSLEVMSQVQVLLYFLQLEAIPAPDSKRQSILFSTEV
In the case of B1, the “Transphosphorylation of histone H1” value in the data set on histone H1 was “defective”. Further, the “P160^BCR autophosphorylation” value with P160^BCR is on record as “not detectably altered”. For the same molecule, in the data set on casein (P160 BCR amount by Western blotting of immune complexes with anti-Bcr antibody), the “Reduction of specific activity compared with wild type” value is reported as “about sixfold”. Also, the “Reduction of transphosphorylation activity compared with wild type, relative to P160 BCR autophosphorylation band intensity” value in the data set on casein (casein band intensity / P160 BCR band intensity) is “about sevenfold”. Further, in the data set with casein (setting [1]), the “Reduction of specific transkinase activity compared with wild type” value is “more than 20 fold” and the “Specific activity of transkinase activity (casein intensity/P160^BCR intensity)” value is 0.03. The “Ability to transphosphorylate casein compared with wild-type Bcr” value in the data set on casein (mutant P160 BCR expressed in COS-1 cells) is given as “severely inhibited”.
